Patent US20230407326A1, “INDUCIBLE PROMOTER FOR VIRAL VECTOR PRODUCTION” (ASKLEPIOS BIOPHARMACEUTICAL, INC., priority 2020, published 2023)

Legend:
HEK293-F cells = experiment: Luciferase expression from hypoxia-inducible promoters in transiently transfected HEK293-F cells under hypoxia; type: cell-based, human; settings: hypoxia 5% oxygen, 3, 5 and 24 hrs
Experimental: 40 ml of cells were grown in a 250 ml vented Erlenmeyer flask (Sigma-Aldrich CLS431144) at 37° C., 20% O2, 8% CO2 with agitation at 100 rpm. Cells were seeded as described in the manufacturer's instructions (300,000 cells/ml). HEK293-F were obtained from Thermofisher, R79007.
(§1) One day before transfection, the cells were counted using a haemocytometer and split to 500,000 cells/ml.
On the day of transfection, the cells are seeded to 1,000,000 cells/ml in 500 μl of appropriate medium (Freestyle 293 expression medium, 12338002) in a 24 well plate. 0.625 μg of DNA per well was then added to 10 μl of OptiMem medium (Thermofisher; 11058021) and incubated for 5 minutes at room temperature. […]
After transfection the cells were incubated for 24 hrs in normoxia conditions (20% oxygen) before being switched to a gas mix of 5% oxygen, 10% carbon dioxide and 85% nitrogen (hypoxia). […] Induction of the promoters was assessed by using luciferase activity after 3, 5 and 24 hrs in hypoxia.
(§2) Luciferase activity was measured using LARII (Dual Luciferase Reporter 1000 assay system, Promega, E1980).
Media was removed from the cells at the respective time point (0, 3, 5, 24 hrs after induction). […] 10 μl of supernatant was pipetted into white 96-well plate and luminescence measured by addition of 50 μl of LARII substrate. […]

HEK293-T cells = experiment: Luciferase expression in transiently transfected HEK293-T cells, normoxia vs 24 hrs hypoxia; type: cell-based, human
Experimental: HEK293-T are seeded at a density of 20%. Once they reached a confluence between 60 and 80%, the media is changed with DMEM (#21885-025—Thermo Scientific) supplemented with 10% FBS (Gibco, 26140). After 3 hours, the cells were transfected by a transfection mix. The transfection mix is prepared by adding DNA (2 μg per 6 well plate) and PEI 25 kDA (#23966-1-Polyscience) in a ratio of 1:3 in sterile DPBS (#14190169—ThermoFisher Scientific). After mixing, the transfection mix is incubated at room temperature for 30 minutes and then added directly to the cells. After 16 to 18 h post transfection, the media is changed to DMEM+2% FBS. […]
After transfection the cells were incubated for 24 hrs in normoxic conditions (20% oxygen). Induction of the promoters was assessed by using luciferase activity after 24 hrs in normoxia or hypoxia (5% oxygen, 10% carbon dioxide and 85% nitrogen). […]
as §2
Media was removed from the cells at the respective time point (0, 3, 5, 24 hrs after induction). […] 10 μl of supernatant was pipetted into white 96-well plate and luminescence measured by addition of 50 μl of LARII substrate.
β-galactosidase activity was measured as per manufacturer's instructions (Mammalian βGalactosidase Assay Kit, 75707/75710, Thermo Scientific) using 25 μl of lysate. […]

CHO-GS cells = experiment: Luciferase expression in transiently transfected CHO-GS suspension cells, normoxia vs 24 hrs hypoxia; type: cell-based, Chinese hamster; settings: CHO_GS suspension cell line
Experimental: 40 ml of cells were grown in a 250 ml vented Erlenmeyer flask (Sigma-Aldrich CLS431144) at 37° C., 20% O2, 8% CO2 with agitation at 100 rpm. Cells were seeded as at 300,000 cells/ml.
as §1
On the day of transfection, the cells are seeded to 1,000,000 cells/ml in 500 μl of appropriate medium (Thermofisher, CD-CHO 10743029) in a 24 well plate. 0.625 μg of DNA per well was then added to 10 μl of OptiMem medium (Thermofisher; 11058021) and incubated for 5 minutes at room temperature.
Concurrently, 0.625 μl of Freestyle Max reagent (Thermofisher, 16447100) was made up to 10 μl by addition of OptiMem and incubated for 5 minutes at room temperature. After this incubation, both mixes were added to the same tube and incubated at room temperature for 25-30 minutes. The DNA/Max reagent mix (20 μl/well) was then added directly to the cells and the cells incubated at 37° C., 8% CO2 with agitation at 100 rpm. […]
After transfection the cells were incubated for 24 hrs in normoxic conditions (20% oxygen). Induction of the promoters was assessed by using luciferase activity after 24 hrs in normoxia or hypoxia (5% oxygen, 10% carbon dioxide and 85% nitrogen). […] Luciferase activity was measured as described above.

B1: RTV-015: synthetic hypoxia-inducible promoter, five HRE1 and synthetic minimal promoter MP1, SEQ ID NO: 1 (nucleic acid)
DNA: ACGTGCGATGATGCGTAGCTAGTAGTGATGATGCGTAGCTAGTAGTACGTGCGATGATGCGTAGCTAGTAGTGATGATGCGTAGCTAGTAGTACGTGCGATGATGCGTAGCTAGTAGTGATGATGCGTAGCTAGTAGTACGTGCGATGATGCGTAGCTAGTAGTGATGATGCGTAGCTAGTAGTACGTGCTTGGTACCATCCGGGCCGGCCGCTTAAGCGACGCCTATAAAAAATAGGTTGCATGCTAGGCCTAGCGCTGCCAGTCCATCTTCGCTAGCCTGTGCTGCGTCAGTCCAGCGCTGCGCTGCGTAACGGCCGCC
promoter activity (luciferase) relative to the other promoters (HEK293-F cells): weakest
luciferase expression in normoxia and after 24 hours in hypoxia (HEK293-T cells): almost no luciferase activity in normoxia but is induced after 24 hours in hypoxia
luciferase expression in normoxia and after 24 hours in hypoxia (CHO-GS cells): almost no luciferase activity in normoxia but is induced after 24 hours in hypoxia
